Source: patent US20230122364A1 (VANDERBILT UNIVERSITY, published 2023)

Legend:
[1] = target: T1, SARS-CoV-2 spike (S) protein on authentic SARS-CoV-2 virus (strain WA1/2020) (SARS-CoV-2, UniProt P0DTC2 14-1273); assay: cell-based or functional assay
[2] = target: T2, SRBD subdomain of SARS-CoV-2 S protein (SARS-CoV-2, UniProt P0DTC2 319-541); assay: ELISA on coated SRBD
[3] = target: T1, SARS-CoV-2 spike (S) protein on …; assay: cell-based or functional assay; remark: listed apart in the source
[4] = target: T2, SRBD subdomain of SARS-CoV-2 S protein; assay: ELISA, purified IgG
SARS-CoV-2 NTD = target: T3, SARS-CoV-2 NTD (SARS-CoV-2, UniProt P0DTC2 14-305); assay: ELISA, purified IgG
T3 construct: domain: NTD

Row | Binder | Nano-luciferase virus reduction test, SARS-CoV-2, IC50 [1] [µg/mL] | SARS-CoV-2 focus reduction test, IC50 [1] [µg/mL] | EC50 [2] [µg/mL] | Neutralization IC50 (FRNT, authentic SARS-CoV-2 WA1/2020) [3] [µg/mL] | OD 450 nm [4] [OD 450 nm] | OD 450 nm (SARS-CoV-2 NTD) [OD 450 nm]
1 | COV2-2050 (antibody, V domains shown) VH: QVQLVQSGAEVKKPGASVKVSCKASGYTFTDYYMHWVRQAPGQGLEWMGWINPNSRGTNYAQKFQGRVTMTRDTSISTVYMELSRLTSDDTAVYYCARVVVLGYGRPNNYYDGRNVWDYWGQGTLVTVSS VL: not shown | < 0.05 | 0.025 | 0.0016 | 0.08 | 4.3 | 0.12
2 | COV2-2068 (antibody, V domains shown) VH: EVQLVESGGGLVQPGGSLRLSCAASGFTVSSNYMSWVRQAPGKGLEWVSVIYPGGSAFYADSVKGRFTISRHNSNNTLCLQMNSLRTEDTAVYYCARSYDILTGYRDAFDIWGQGTMVTVSS VL: QSVLTQPPSVSGAPGQRVTISCTGSSSNIGSGSDVHWYQQLPGTAPKLLIYGNTNRPSGVPDRFSGSKSGTSASLAITGLQAEDEADYYCQSYDSRLSGFVVFGGGTKLTVL | < 0.3 | 0.864 | 0.0012 | 0.478 | 4.3 | 0.1
3 | COV2-2082 (antibody, V domains shown) VH: EVQLVESGGGVVRPGGSLRLSCAASGFIFDDYDMTWVRQAPGKGLEWVSGISWNGGNTGYADSVKGRFTISRDNAKNSLYLQMNSLRAEDTALYHCAVIMSPIPRYSGYDWAGGAFDIWGQGTMVTVSS VL: SSELTQDPAVSVALGQTVRITCQGDSLRSYYASWYQQKPGQVPILVIYDKNNRPSGIPDRFSGSSSGNTASLTITGAQAEDEADYYCNSRDSSGNAVVFGGGTKLTVL | < 0.2 | 0.302 | 0.0006 | 0.204 | 4.3 | 0.11
4 | COV2-2046 (antibody, V domains shown) VH: EVQLVESGGGLVQPGRSLRLSCAASGFTFDDYAMHWVRQAPGKGLEWVSGISWNSGSIAYTDSVKGRFTISRDNAKNSLYLQMNSLRAEDTALYYCAKAHSTGHQYYYGMDVWGQGTTVTVSS VL: DIQMTQSPSSLSASVGDRVTITCRASQSISSFLNWYQQKPGKAPKLLIYAAFNLQSGVPSRFSGSGSGTDFTLTISSLQSEDFATYYCQQSYNTPYTFGQGTKLEIK | < 0.1 | 0.171 |  |  |  | 0.09
5 | COV2-2113 (antibody, V domains shown) VH: EVQLVESGGGLIQPGGSLRLSCAASEVTVSSNYMSWVRQAPGKGLEWVSLIYSGGTTYYADSVKGRFTISRDNSKNTLYLQMNSLRAEDTAVYYCARDFLRWHDLWGQGTLVTVSS VL: DIQMTQSPSSLSASVGDRVTITCQASQDINNYLNWYQQKPGKAPKLLIYDASNLETGVPLRFSGSGSGTDFIFTISSLQPEDIATYYCQQYDNLPPVFGGGTKVEIK | < 0.3 | 0.427 | 0.0006 | 1.04 | 4.4 | 
6 | COV2-2132 (antibody, V domains shown) VH: EVQLVESGGGLIQPGGSLRLSCAASEVTVSSNYMSWVRQAPGKGLEWVSLIYSGGTTYYADSVKGRFTISRDNSKNTLYLQMNSLRAEDTAVYYCARDFLRWHDLWGQGTLVTVSS VL: DIQMTQSPSSLSASVGDRVTITCQASQDINNYLNWYQQKPGKAPKLLIYDASNLETGVPLRFSGSGSGTDFTFTISSLQPEDIATYYCQQYDNLPPVFGGGTKVEIK | < 0.3 | 0.673 |  |  |  | 0.15
7 | COV2-2098 (antibody, V domains shown) VH: EVQLLESGGGLIQPGGSLRLSCAASGFTFSNYAMSWVRQAPGKGLEWVSGIISTSGGATYNADSVRGRFTTSRDNSKNILYLQMNSLRGEDTAVYYCVKGLFDWFPLWGQGTMVTVSS VL: DIVMTQSPATLSVSPGERAILSCRASQSVRSNLAWYQQKPGQAPRLLISGASTRATAIPARFSGSGSGTEFTLTITSLQSEDCAVYYCHQYNNWPQTFGQGTKVEIK | < 0.1 | 0.776 | 0.0007 | 1.03 | 4.2 | 0.15
8 | COV2-2103 (antibody, V domains shown) VH: EVQLVESGGGLVQPGGSLRLSCAASGFTFSRHWMTWVRQAPGKGLEWVANIKQDGSEKYYVDSVKGRLTISRDNAKNSLYLQMNSLRAEDTAVYYCARLGFYYGGADYWGQGTLVTVSS VL: NFMLTQPHSVSESPGKTVTISCTGSSGSIASNYVQWYQQRPGSAPTTVISEDNQRPSGVPDRFSGSIDSSSNSASLTISGLKTEDEADYYCQSYDGINRAWVFGGGTKLTVL |  | > 1 | 0.0011 | 1.97 | 4.3 | 0.12
9 | COV2-2961 (antibody, V domains shown) VH: EVQLVQSGPEVKKPGTSVKVSCKASGFTFMSSAVQWVRQARGQRLEWIGWIVIGSGNTNYAQKFQERVTITRDMSTSTAYMELSSLRSEDTAVYYCAAPYCSSISCNDGFDIWGQGTMVTVSS VL: not shown |  | 0.03 |  |  |  | 
